These results are taken from the nanobody polyreactivity screen of Harvey et al. (2022).

A short description of the data set: yeast display, Sf9 membrane polyspecificity reagent, FACS + sequencing; frameworks hold sequencing errors. The method in brief:
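Using colony PCR, genes from sorted yeast display clones were amplified, then sequenced on MiSeq at 2 × 250 and filtered by CDR length. The clones had been stained with 10% biotinylated, detergent-solubilized Sf9 membrane reagent for 1 hour at 4 °C and sorted by FACS into low and high (top ~1%) gates on anti-HA and streptavidin fluorescence. Polyreactivity labels come from the gate of origin.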
For the sequence “QVQRVDSGGGLVQAGGSLRLTCAASGSTFDKYAMGWYRQAPGKERELVAAISLSGGSTYYADSVKGRFTISRDNAKNTVYLQMNSLKPEDTAVYYCNTPPSRYVRYGIYRYDYWGQGTQVTVSS”, the “polyreactivity (PSR sort gate)” value is on record as “high polyreactivity”.
Under “QVQRVESAGGLVQAGGSLRLSCAASGRTFSGNARGWYRPAPGKERELVAGISTTGGSTYYADSVKGRFTISRDNAKNTVYLEMNSLKPADTAVYYCAAYSASNGGYDYWGQGTQVTVSS” stands “high polyreactivity”; under “QVQRVESAGGLVQAGGSLRLSCAPTGSIFSTNPMGWYSQSPGTERELVATITWSDGSTYYADSVKGRFTISRDNAKNTVYLQLNSLKPEDTAVYDCATPYKRDFYKGGDYWAQGTQVTVSS”, “low polyreactivity”; under “QVQRVESGGGLGQAGGSLRLSCDASGRTFSGNTMGWYRQAPVKERELVAVINSGTRTYYADSVKGRFTISRDNAKNTVYLQMYSLKPEDTAGYYCATRCKSPSSKYGYWGQGTQVNVSS”, “high polyreactivity”.
“QVQRVESGGGLVLAGGSLRLSCAASAHIFAWYAMGWYRQAPGNERELVADISSRGGSTYYADSVKGRITISRDNAKNTVYLQMNSLKPEDTAVYSCAAVCYWTQDYDYWGQGTQVTVSS”: the “polyreactivity (PSR sort gate)” value was “low polyreactivity”.
For “QVQRVESGGGLVQAAASLRLSCAASGRTFYVYTMGWYRPAPGKERELVAAITSGGSTNYADSVKGRFTISRDNAKNTVSLHMNSLKPEVTAVYYCAARVSTVFKRYYYWGQGTQVTVSS” the value was “high polyreactivity”; for “QVQRVESGGGLVQAGASLRLSCAASGRTFRSYTMGWYRQAPGKERELVATISGSGSTNYADSVKGRFTISRDNAKITVYLQMNSLKPEDTAVYYCAADVSLSVFKLDYWGQGTQVTVSS”, “low polyreactivity”.
Consider “QVQRVESGGGLVQAGCSLLLSCASSGNIFTRNAMGGYRHAPGKEREWVAAISTSGGRTYYADSVKGRFTISRDNAKNTVYLQMYSLKPEDTAVYYCAADYLSGTELYYWGQGTQVTVSS”, for which the “polyreactivity (PSR sort gate)” value is recorded as “high polyreactivity”.
Under “QVQRVESGGGLVQAGGRLRLSFAAAGIIFKVNAMGWYRQAPGKERELVPAISWSGSSTYYADSVKGRFTISRDNAKNTVYLQMNSLKPEDTAVYYCGTRWFAVHMYWGQGTQVTVSS” stands “high polyreactivity”; under “QVQRVESGGGLVQAGGSLLLSCAASGRTFRPYTMGWYRQAPGTERELVARITSGGSTNYADSVKGSFTISRDNAKNTVYLQMNSLKPEDTAVYYCNKPGDRHRLDEDYWGQGTQVTVSS”, “low polyreactivity”; under “QVQRVESGGGLVQAGGSLLLSCAASGRTIRHNAMGWYRPAPGKERELVAAISRSGGSTYYADSVKGRFTISRDKAKNTVYLLMNSLKPEDTAVYYCAAGYHGYDWGQGTQVTVSS”, “high polyreactivity”.
As for “QVQRVESGGGLVQAGGSLRLRCAASGRTFMTNAMGWYRQAPGTERELVAAISSGASTNYADSVKGRFTISRDNAKNTVYLQMNSLNPEDTAVYYCGAQLTDYQSKTLSYDYWGQGTQVTVSS”, the “polyreactivity (PSR sort gate)” value was “low polyreactivity”.
Under “QVQRVESGGGLVQAGGSLRLRCAASGSIFYQYALGWYRQARGKEREWVAAISRSGGRTYYADSVKGRFTISRDNAKNTVYLQMNSLKPEDTAVYYCAAGTSWPWYQRDYWGQGTQVTVSS” stands “low polyreactivity”.
For “QVQRVESGGGLVQAGGSLRLRCAASGSILYHNTMGWYIQAPGKEREFVASISANGGSTYYADSVKGRFTISRDNAKNTVYLQMNSLKPEDTAVYYCAARVADYPLVGGSSYNRMEYWGQGTQVTVSS” the value was “low polyreactivity”; for “QVQRVESGGGLVQAGGSLRLSCAASGFIFARNAMGWNRPAPGKERELVAAINQSGGITRYADSVKGRFTISRDNAKNTVYLQMNSLKPEDTAVYYCATPLYVRYDYWGQGSQVTVSS”, “high polyreactivity”; for “QVQRVESGGGLVQAGGSLRLSCAASGFTFYRYAMGWYRQAPGKEREFVAVINIRGSTTYYADSVKGRFTISRDNAKNTVYLQMNSLKPEDTAVYYCARRYRGPYYSLPRRKEFDYWGQGTQVTVSS”, “high polyreactivity”.
For “QVQRVESGGGLVQAGGSLRLSCAASGFTLDPYAMGWYRQAPGKEREFVAAIRLSGSSTYYADSVKGRFTISRDNAKNTVYLQMNSLKPEDTAVYYCAADGISHWLYRYDYWGQGTQVTVSS” the value was “low polyreactivity”.
On to “QVQRVESGGGLVQAGGSLRLSCAASGLIFYRYVMGWYRQAPGKETELVAAISGNGASTYYADSVKGRFTISRDNAKNTVYLQMHSLKPEDTAVYYCNADVYVSSKTHSSSPQWWGYDYWGQGTQVTVSS”, for which the “polyreactivity (PSR sort gate)” value is “low polyreactivity”.
For “QVQRVESGGGLVQAGGSLRLSCAASGRIFNWYVMGWKRQAPGKERELVAAINSGGITKYADSVKGRFTISRDNAKNTVYLQMNSLKPEDSAVYYCAAYYRRYDYDYWGQGTQVTVSS”, the “polyreactivity (PSR sort gate)” value was “high polyreactivity”.
For “QVQRVESGGGLVQAGGSLRLSCAASGRTFSSYDLGWYRQAPGKERELVAAITSGGSTYYADSVKGRFTISRDNAKNTVYLQMNSLKPDDTAVYYCAADIYWWCSKDYDYWGQGTQVTVSS” the value was “high polyreactivity”; for “QVQRVESGGGLVQAGGSLRLSCAASGRTFTYYAMGWYRQAPGKERELVAAISSRGGSTYYADSVKGRFTISRDNAKNTVYLQMNSLKPEDTAVYYCAAVLRFTRASRWPDFDYWGQGTQVTVSS”, “high polyreactivity”.
For “QVQRVESGGGLVQAGGSLRLSCAASGSIFASNAMGWYRQAPGKERELVADISGTTGSTYYADSVKGRFTISRDNAKNTVYLQMNSLKPEDTAVYYCAADLVWVSTSYYYWGQGTQVTVSS” the value was “low polyreactivity”; for “QVQRVESGGGLVQAGGSLRLSCAASGSIFGPNTIGWSRQAPGKERDLVAAITRSGGSTYYADSVKGRFTISRDNAKNTVYLQMNSLKPEDTAVYYCAVGDGFEYDWGQGTQVTVSS”, “low polyreactivity”; for “QVQRVESGGGLVQAGGSLRLSCAASGSIFKYYTMGLYRPAPGKERELVAYISSGGSTKYADSVKGRFTNSRDNAKNTVYLQMNSLKPEDTAVYYCAKRYYYFYPDYDFLGQGTQVTVSS”, “high polyreactivity”.
For “QVQRVESGGGLVQAGGSLRLSCAASGSIFRTYAMRWYRQAPGTERELVAAITSRGSSTYYADSVKGRFTISRDNAKNTVYLQMNSLKPEDTAVYSCPADYRTSYKGVLFSMYYWGQGTQVTVSS” the value was “high polyreactivity”; for “QVQRVESGGGLVQAGGSLRLSCAASGSIFYRNVMGWYRPAPGKERELVAAISSGTSTYYADSVKGRFTISRDNAKNTVYLQMTSLKPEDPAVYYCAAEGPHYYGQRWYYGVDYWGQGTQVTVSS”, “low polyreactivity”.
On to “QVQRVESGGGLVQAGGSLRLSCAASGSNFDKNPMGWYRQAPGKEREVVAAISRSGGSTNYADSVKGRFTISRDNAKTTDFLLMYSVKPEDTAVYYFAAQSRYWTYDSWGQGTQVNVSS”, for which the “polyreactivity (PSR sort gate)” value is “high polyreactivity”.
For “QVQRVESGGGLVQAGGSLRLSCAASGSTFLVNGMGWNRPAPGKERELVASITRDSSTYADSVKGRFTISRDNAKNTVYLQMNSLKPEDTAVYYCAATSRRRWSQQQGYGYYYWGQGTQVTVSS” the value was “high polyreactivity”; for “QVQRVESGGGLVQAGGSLRLSCAASGYILPRYAMGWYIQAPGKERELVAAITSGGITSYADSVKGRFTISRDNAKNTVYLQMNSLKPEDTAVYYCAADWYVIYDYWGQGTQVTVSS”, “low polyreactivity”; for “QVQRVESGGGLVQAGGSLRLSCAASGYTFEAYAMGWYRQAPGKERELVAAITINGGSTYYADSVKGRFTISRDNAKNTVYLQMNSLKPEDTAVYYCAADLFHRAGWYFAYGHWGLGTQVTVSS”, “low polyreactivity”.
Regarding “QVQRVESGGGLVQAGGSLRLSCAASGYTFYFYDMGWYRQAPGKERELVAAITSSGGSTYYADSVKGRFTISRDNAKNTVYLQMNSLKPEDTAVYYCNALITYSSDYWGQGTQVTVSS”, the “polyreactivity (PSR sort gate)” value is on record as “low polyreactivity”.
Under “QVQRVESGGGLVQAGGSLRLSCAASGYTLGGYAMGWYRQAPGKERELVAAISSSGTSTYYADSVKGRFTISRDNAKNTVYLQMNSLKPEDTAVYYCNAYYLTYSAGDYWGQGTQVTVSS” stands “low polyreactivity”; under “QVQRVESGGGLVQAGGSLRLSCAASRITFSVNALRWYRHAPGKDRELVASISSGGSTNYADSVQGGFTISRDNAKNTVDLQMNSLKQEDTAVYYCNADVGFGSMDYCGQGTQVTVSS”, “low polyreactivity”; under “QVQRVESGGGLVQAGGSLRLSCAASRITFTVNAMGWYRQAPGKERELVAAISWSGGSTYYADSVKGRFTISRDIAKNTVYLQMNSLKPEDTAVYYCNAVLYRFAYNYWGQGTQVTVSS”, “low polyreactivity”.
For “QVQRVESGGGLVQAGGSLRLSCAATGFTSGDYAMGWYRQAPGKERELVAAIDSDGSTNYADSVKGRFTISRDNAKNTVYLQMNSLKPEDTADYYCNAKRYGFFYWQGDYWGQGTQVTVSS” the value was “low polyreactivity”; for “QVQRVESGGGLVQAGGSLRLSCDASGFTFVPYAMGWYRQAPGKERELVAAISWRRGSTYYADSVKGRFTISRDNAKNTVYLQMNSLKPEDTAVYYCARKGYHYSETSAIFALYDYWGQGTQVTVSS”, “high polyreactivity”.
For “QVQRVESGGGLVQAGGSLRLSCPASGFTFSRNVMGWYRQAPGKERELVADITLSGASTYYADSVKGRFTISRDNAKNTVYLQMNSLKPEDTAVYYCAADPYHWRWGWRHDYWGQGTQVTVSS” the value was “low polyreactivity”.
With “QVQRVESGGGLVQAGGSLRLTCAASGFTFVYYPMGWYRQAPGKVREWVAVISYSGTNTRYADSVKRRFTISRDNAKITVYLQMNSLKPEDTAVYYCAAEIYYVSWYDYWGQGTQVTVSS”, the “polyreactivity (PSR sort gate)” value was “high polyreactivity”.
For “QVQRVESGGGLVQAGGSLRLTCAASGRTFPGYAMGCYRQAPGKERELVAGISYRGGSTYYADSVKGRFTISRDNANNTVYLQMNSLKPEDSAVYYCALDYSRHKGDYWGQGTQVTVSS” the value was “low polyreactivity”; for “QVQRVESGGGLVQARGSLRLSCAPSGSIFPYYAMGCYRPAPGKERELVAGISRRGGTTYYADSVKGRLTISRDNAKNTVYIQMHSLKPEDTAVYYCAARYGPYVDRYGYCGQGTQVTVSS”, “high polyreactivity”; for “QVQRVESGLGLVQAGCSLRLTCAASGRIFDGYAMGWYRPARGKERELVATISSGGFTYYADSVKGSFTISRDNAKNTFYLQMNILKPEDTAVYYCAATPICSGGWGDYWGQGTQVTVSS”, “low polyreactivity”.
